{"source": "paper PMC5556061", "about": "(Scientific Reports, 2017)", "molecules": {"B1": {"name": "phage-displayed peptide clone 16 (AHTPPPKPTRPP) (peptide)", "peptide": "AHTPPPKPTRPP", "notes": "12-residue peptide selected from a degenerate library; also called phage clone 16; source: M13 phage stock (Ph.D.-12 Phage Display Peptide Library, New England Biolabs), selected by panning"}, "B2": {"name": "synthetic octapeptide APPKPPLP (binding site of CAS on Vinculin) (peptide)", "peptide": "APPKPPLP", "notes": "also called Vinculin core peptide (859-866); source: synthetic peptide"}, "B3": {"name": "phage-displayed peptide clone 10 (TMTPPPKPPRLI) (peptide)", "peptide": "TMTPPPKPPRLI", "notes": "12-residue peptide selected from a degenerate library; also called phage clone 10; source: M13 phage stock (Ph.D.-12 Phage Display Peptide Library, New England Biolabs), selected by panning"}, "B4": {"name": "Vinculin-derived peptide, residues 854-870 (peptide part of the CAS-Vinculin chimera) (peptide, UniProt Q64727 854-870, looked up)", "peptide": "LTDELAPPKPPLPEGEV", "notes": "Vinculin, mouse, residues 854-870; Stood on one chain with the CAS SH3 domain: SH3 domain, spacer SGGSGSG, peptide; also called Vinculin peptide; Vinculin extended peptide; source: E. coli BL21 (DE3), as the C-terminal part of the CAS SH3 chimera, purified"}, "B5": {"name": "PTP-PEST-derived peptide, residues 327-343 (peptide part of the CAS-PTP-PEST chimera) (peptide, UniProt P35831 327-343, looked up)", "peptide": "EKQDSPPPKPPRTRSCL", "notes": "PTP-PEST, mouse, residues 327-343; Stood on one chain with the CAS SH3 domain: SH3 domain, spacer SGGSGSG, peptide; also called PTP-PEST peptide; PTP-PEST extended peptide; source: E. coli BL21 (DE3), as the C-terminal part of the CAS SH3 chimera, purified"}, "B6": {"name": "GST-fused CAS SH3 domain (domain or fragment, mouse, UniProt Q61140 3-65, looked up)", "chain": "VPNVLAKALYDNVAESPDELSFRKGDIMTVLERDTQGLDGWWLCSLHGRQGIVPGNRLKILVG", "notes": "Crk-associated substrate (CAS), mouse, SH3 domain; also called GST-CAS SH3; GST-SH3; source: E. coli BL21 (DE3), pGEX-2TK, purified (glutathione agarose); not shown: GST, N-terminal, kept"}}, "key": {"Src kinase": {"system": "Src kinase", "assay": "Co-immunoprecipitation of FAK and Vinculin with CAS after Src inhibition", "assay_type": "cell-based, mouse", "conditions": "MEFs SrcF treated with 5 µM Saracatinib for 3 h, Vinculin immunoblot", "method": "Immunoprecipitations from lysates of MEFs or MEFs transformed with SrcF were performed similarly as described above. To immunoprecipitate CAS proteins, protein-A sepharose (GE-Healthcare) and anti-CAS antibody (BD Transduction Laboratories) were used. […] After transferring proteins onto nitrocellulose membrane and blocking, the membranes were incubated with anti CAS, Src, FAK, Vinculin, CAS Tyr12, CAS pTyr165, Src pTyr418 or actin antibody."}, "CAS SH3 Y12E": {"system": "CAS SH3 Y12E", "assay": "Phage ELISA with CAS SH3 variants", "assay_type": "binding, mouse", "conditions": "immobilized 5 µg of CAS SH3 variant per well, three independent experiments", "method": "The relative binding affinities of individual phage clones to GST-CAS SH3 were assessed by ELISA according to the manufacturer’s protocol (Ph.D.™ −12 Phage Display Peptide Library Kit, New England Biolabs). Briefly, a dilution series of phage stocks was prepared in TBS with 0.5% Tween 20 (TBST, 10^15−2 × 10^6 pfu/ml), and phages were scored for their ability to bind immobilized GST-CAS SH3 domain (100 µl of 50 µg/ml per well) in 96-well plate. Bound phages were detected with anti-M13 antibody conjugated to HRP and quantified in a colorimetric assay (ABTS at 415 nm, Invitrogen) using Varioskan Flash (Thermo Scientific). Relative binding affinities (the affinity of the phage clone with the highest affinity was arbitrarily set to 1) were evaluated based on the number of phages required to bind the immobilized GST-fused CAS SH3 domain at 50% saturation. Curves were fitted with the standard sigmoidal function in Sigmaplot. The clones with highest affinities were selected for further analyses (e.g., binding to immobilized 5 µg of CAS SH3 variants per well)."}, "GST-fused CAS SH3 domain": {"system": "GST-fused CAS SH3 domain", "assay": "Competitive displacement phage ELISA (EC50)", "assay_type": "binding, mouse", "method": "The EC50 for phage clone 1 ([…], highest affinity) was determined using competitive displacement of the phage bound (5.5·10^10 pfu) to immobilized GST-fused CAS SH3 domain (100 µl of 20 µg/ml per well to yield the best specificity/sensitivity ratio) by serial additions of free GST-fused CAS SH3 domain in TBST (1 µg/ml–800 µg/ml) as previously described. The amount of bound phages was assessed with anti-M13 antibody conjugated to HRP and quantified in a colorimetric assay. Displacement curves were fitted to standard sigmoidal function and EC50 was calculated in Sigmaplot version 11 software using a four-parameter logistic equation. Statistical significance (*p < 0.05, **p < 0.01, ***p < 0.001) was determined on log-transformed data by one-way ANOVA followed by Tukey’s post-hoc test."}, "[1]": {"biological_target": "T1, GST-fused CAS SH3 domain Y12F (mouse, UniProt Q61140 3-65, Y12F)", "T1 construct": "Crk-associated substrate (CAS), mouse, SH3 domain with Y12F; also called CAS SH3 Y12F mutant; source: E. coli BL21 (DE3), pGEX-2TK, purified (glutathione agarose); not shown: GST, N-terminal, kept", "T1 sequence (looked up)": "B6 chain with Y10F", "assay": "ELISA; phage ELISA: GST-CAS SH3 domain or its variants immobilised in 96-well plate (100 µl of 50 µg/ml; 5 µg per well), dilution series of phage stocks in TBS with 0.5% Tween 20, anti-M13-HRP; relative affinities from phage number at 50% saturation", "conditions": "one partner purified"}, "[2]": {"biological_target": "T2, CAS SH3 (as used for ITC) (mouse, UniProt Q61140 3-65)", "T2 construct": "Crk-associated substrate (CAS), mouse, SH3 domain; probably the same protein as m2; source: E. coli BL21 (DE3), purified", "T2 sequence (looked up)": "B6 chain", "assay": "ITC; 660 µM peptide injected into 60 µM CAS SH3; 25 °C; PBS pH 7.5, 0.05% 2-mercaptoethanol", "conditions": "both partners purified"}, "[3]": {"biological_target": "T3, CAS SH3 domain (GST tag removed, for NMR) (mouse, UniProt Q61140 3-65)", "T3 construct": "Crk-associated substrate (CAS), mouse, SH3 domain; Two additional residues remained at the N-terminus after thrombin cleavage; In the two chimeras this domain carried, on the same chain, the spacer SGGSGSG and the peptide m17 or m18 at its C-terminus; also called free CAS SH3 domain; source: E. coli BL21 (DE3), 15N/13C-labelled, purified (glutathione agarose, thrombin cleavage, size exclusion); …", "T3 sequence (looked up)": "B6 chain", "assay": "NMR solution structure; chimeras: peptide fused through a Gly/Ser-rich linker to the C-terminus of the CAS SH3 domain; 450 µM; 25 °C; 25 mM sodium phosphate pH 7.5, 100 mM NaCl, 1 mM TCEP", "conditions": "both partners purified"}, "[4]": {"biological_target": "T4, phage-displayed peptide clone 1 (FHAPPSKPPLPK)", "T4 construct": "12-residue peptide selected from a degenerate library; also called phage clone 1; source: M13 phage stock (Ph.D.-12 Phage Display Peptide Library, New England Biolabs), selected by panning", "T4 peptide": "FHAPPSKPPLPK", "assay": "ELISA; competitive displacement of phage clone 1 (5.5·10^10 pfu) bound to immobilised GST-CAS SH3 (100 µl of 20 µg/ml per well) by free GST-CAS SH3 in TBST (1-800 µg/ml); anti-M13-HRP", "conditions": "one partner purified"}}, "note": "Where a chain is given by its changes, count along the chain named.", "data": [{"molecule": "CN1CCN(CCOc2cc(OC3CCOCC3)c3c(Nc4c(Cl)ccc5c4OCO5)ncnc3c2)CC1", "note": "[Saracatinib]", "values": [{"measurement": "binding of CAS to Vinculin", "setting": "Src kinase", "result": "restored the binding of CAS to Vinculin to a similar level as in MEFs"}]}, {"molecule": "AHTPPPKPTRPP [clone 16]", "values": [{"measurement": "effect of Y12E mutation on ligand binding", "setting": "CAS SH3 Y12E", "result": "complete disruption of ligand binding"}]}, {"molecule": "FHAPPSKPPLPK [clone 1]", "values": [{"measurement": "fold higher affinity than reported for CAS SH3 with FAK-derived peptide", "setting": "GST-fused CAS SH3 domain; EC50 of clone 1 compared with previously reported value", "result": "~6", "unit": "fold"}, {"measurement": "EC50", "setting": "GST-fused CAS SH3 domain; displacement of bound phage (5.5·10^10 pfu) from immobilized GST-CAS SH3 (100 µl of 20 µg/ml per well) by free GST-fused CAS SH3 (1-800 µg/ml) in TBST, anti-M13-HRP, colorimetric, seven independent experiments, read-out: EC50 for clone 1 binding", "result": 0.363, "unit": "µM"}]}, {"molecule": "TMTPPPKPPRLI [clone 10]", "values": [{"measurement": "effect of Y12E mutation on ligand binding", "setting": "CAS SH3 Y12E", "result": "complete disruption of ligand binding"}]}, {"molecule": "B1", "values": [{"measurement": "fold decrease in affinity against CAS WT", "setting": "[1]", "result": 37, "unit": "fold"}]}, {"molecule": "B2", "values": [{"measurement": "Kd", "setting": "[2]", "result": 15.7, "unit": "µM"}, {"measurement": "stoichiometry N", "setting": "[2]", "result": 1}]}, {"molecule": "B3", "values": [{"measurement": "fold decrease in affinity against CAS WT", "setting": "[1]", "result": 2, "unit": "fold"}]}, {"molecule": "B4", "values": [{"measurement": "binding result", "setting": "[3]", "result": "binds"}]}, {"molecule": "PPPKPPRL (source: synthetic peptide)", "note": "[synthetic octapeptide PPPKPPRL]", "values": [{"measurement": "Kd", "setting": "[2]", "result": 5.29, "unit": "µM"}, {"measurement": "stoichiometry N", "setting": "[2]", "result": 1}]}, {"molecule": "PPSKPPRP (source: synthetic peptide)", "note": "[synthetic octapeptide PPSKPPRP]", "values": [{"measurement": "Kd", "setting": "[2]", "result": 15.3, "unit": "µM"}, {"measurement": "stoichiometry N", "setting": "[2]", "result": 1}]}, {"molecule": "PPSKPPLP (source: synthetic peptide)", "note": "[synthetic octapeptide PPSKPPLP]", "values": [{"measurement": "Kd", "setting": "[2]", "result": 46.6, "unit": "µM"}, {"measurement": "stoichiometry N", "setting": "[2]", "result": 1}]}, {"molecule": "B5", "values": [{"measurement": "binding result", "setting": "[3]", "result": "binds"}]}, {"molecule": "B6", "values": [{"measurement": "EC50", "setting": "[4]", "result": 0.363, "unit": "µM"}]}]}
